The results in this text go back to IntAct's records for PubMed 12907709.

The chains are these.
B1: DNA-directed RNA polymerase II subunit rpb7 (Schizosaccharomyces pombe (strain ATCC 38366 / 972)), O14459 (parent)
chain: MPFFLKELSLTISLHPSYFGPRMQDYLKAKLLADVEGTCSGQYGYIICVLDSNTIDIDKGRVVPGQGFAEFEVKYRAVLWRPFRGEVVDAIVTTVNKMGFFANIGPLNVFVSSHLVPPDMKFDPTANPPNYSGEDQVIEKGSNVRLKIVGTRTDATEIFAIATMKEDYLGVL
partner: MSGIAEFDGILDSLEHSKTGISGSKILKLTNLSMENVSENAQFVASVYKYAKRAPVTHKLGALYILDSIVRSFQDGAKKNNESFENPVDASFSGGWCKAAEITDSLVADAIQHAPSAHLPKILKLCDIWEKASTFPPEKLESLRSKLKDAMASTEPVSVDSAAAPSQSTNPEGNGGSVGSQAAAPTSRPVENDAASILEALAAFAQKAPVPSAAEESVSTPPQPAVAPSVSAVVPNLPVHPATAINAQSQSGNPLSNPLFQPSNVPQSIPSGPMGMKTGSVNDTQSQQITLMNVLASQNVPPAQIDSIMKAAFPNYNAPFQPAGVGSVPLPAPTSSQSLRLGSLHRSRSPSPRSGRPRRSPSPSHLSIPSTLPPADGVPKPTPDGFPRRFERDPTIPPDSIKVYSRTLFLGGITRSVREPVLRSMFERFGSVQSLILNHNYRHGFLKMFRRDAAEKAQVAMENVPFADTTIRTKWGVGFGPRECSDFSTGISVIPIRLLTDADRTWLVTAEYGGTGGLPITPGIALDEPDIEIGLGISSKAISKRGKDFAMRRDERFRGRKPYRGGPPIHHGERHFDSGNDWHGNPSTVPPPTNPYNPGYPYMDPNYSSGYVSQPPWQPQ

The variants in this assay derive from B1. As to conditions: with seb1_schpo seb1, Q9UTE3.
For the variant MPFFLKELSLTISLHPSYFGPRMQDYLKAKLLADVEGTCSGQYGYIICVLDSNTIDIDKGRVVPGQGFAEFEVKYRAVLWRPFRGEVVDAIVTTVNKMGFFANIGPLNVFVSSHLVPPDMKFDPTANPPNYSGEDQVIEKGSNVRLKIVGTRTDATEIFAIATMKRAYLGVL [E166R;D167A], the “effect of a mutation on the interaction” value was “disrupting interaction”.
